# Experimental data published in PMC7714071, “Interaction of amyloid beta with humanin and acetylcholinesterase is modulated by ATP” (FEBS Open Bio, 2020).
# B1: acetylcholinesterase (protein)
# chain: EGREDAELLVTVRGGRLRGIRLKTPGGPVSAFLGIPFAEPPMGPRRFLPPEPKQPWSGVVDATTFQSVCYQYVDTLYPGFEGTEMWNPNRELSEDCLYLNVWTPYPRPTSPTPVLVWIYGGGFYSGASSLDVYDGRFLVQAERTVLVSMNYRVGAFGFLALPGSREAPGNVGLLDQRLALQWVQENVAAFGGDPTSVTLFGESAGAASVGMHLLSPPSRGLFHRAVLQSGAPNGPWATVGMGEARRRATQLAHLVGCPPGGTGGNDTELVACLRTRPAQVLVNHEWHVLPQESVFRFSFVPVVDGDFLSDTPEALINAGDFHGLQVLVGVVKDEGSYFLVYGAPGFSKDNESLISRAEFLAGVRVGVPQVSDLAAEAVVLHYTDWLHPEDPARLREALSDVVGDHNVVCPVAQLAGRLAAQGARVYAYVFEHRASTLSWPLWMGVPHGYEIEFIFGIPLDPSRNYTAEEKIFAQRLMRYWANFARTGDPNEPRDPKAPQWPPYTAGAQQYVSLDLRPLEVRRGLRAQACAFWNRFLPKLLSATDTLDEAERQWKAEFHRWSSYMVHWKNQFDHYSKQDRCSDL
# System: Aβ from H1299 cell-conditioned media
# Test: ELISA, HN (endogenous and exogenously added) and AChE bound to Aβ from H1299 media on 82E1 antibody
# Type: binding, human
# Details: H1299 cell-conditioned media, 82E1; Fig. 6
# Protocol: Human NSCLC cell lines, A549 (ATCC CCL‐185) and H1299 (ATCC CRL‐5803), were purchased from the American Type Culture Collection (ATCC, Manassas, VA, USA). Cells were seeded as we reported earlier in 5 mL HyClone Dulbecco's modified Eagle's medium/nutrient mixture F‐12 (DMEM/F12) (GE Healthcare Life Sciences, Pittsburgh, PA, USA), supplemented with 10% Fetalgro bovine growth serum (FBS; RMBIO, Missoula, MT, USA), 50 U·mL^−1 penicillin, and […] streptomycin (Invitrogen, Life Technologies, Carlsbad, CA, USA) in 25‐cm^2 tissue culture flasks, and allowed to grow overnight in an incubator at 37 °C, 95% humidity, and 5% CO2. The cells were counted after trypan blue staining, with a hemocytometer.
# ELISAs were carried out as we previously reported. […] TBST was then used to wash the wells 4× before proceeding in one of two ways: (a) biotinylated samples were analyzed by adding 100 µL streptavidin–HRP conjugate in TBST (1 : 2500 dilution) to the samples followed by incubation for 3 h at RT on a shaker, or (b) samples without biotin were analyzed by adding 100 µL TBST containing the primary antibody as per the manufacturer's recommendation, incubating for 3 h at RT on a shaker, followed by washing the wells 4× with TBST. […] The reaction was stopped with 100 µL 2 M H2SO4 after incubating at RT for 0.5–15 min, resulting in a yellow color change, measured by absorbance at 450 nm. […]
molecule,measurement,value
B1,AChE bound to Aβ,barely detectable levels
